Earlier results, collected in paper PMC12462375.
pKd: −log10 of the molar value.

Legend:
basigin (Homo sapiens) = basigin (Homo sapiens) (UniProt P35613)
CD47 (Homo sapiens) = CD47 (Homo sapiens) (UniProt Q08722)

Sequence of UniProt P35613 (P35613 22-325): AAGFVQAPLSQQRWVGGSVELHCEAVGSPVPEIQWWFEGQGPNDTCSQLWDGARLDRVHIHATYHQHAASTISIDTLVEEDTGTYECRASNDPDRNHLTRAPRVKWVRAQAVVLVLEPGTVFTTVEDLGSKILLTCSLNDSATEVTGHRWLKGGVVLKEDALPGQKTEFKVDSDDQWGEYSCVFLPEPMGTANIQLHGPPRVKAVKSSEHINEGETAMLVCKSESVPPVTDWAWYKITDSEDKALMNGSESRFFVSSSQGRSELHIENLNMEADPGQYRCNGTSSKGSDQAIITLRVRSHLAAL

| Substance | pKd (basigin (Homo sapiens)) | pKd (CD47 (Homo sapiens)) |
| --- | --- | --- |
| PfRH5 (from UniProt Q8IFM5) | 5.96 | – |
| SIRPα (PDB 4CMM) (from UniProt P78324) | – | 6.13 |
